Source: US20130230533A1 (Regeneron, published 2013)

T1: Monomeric human CD48-mmH (human)
T1 chain: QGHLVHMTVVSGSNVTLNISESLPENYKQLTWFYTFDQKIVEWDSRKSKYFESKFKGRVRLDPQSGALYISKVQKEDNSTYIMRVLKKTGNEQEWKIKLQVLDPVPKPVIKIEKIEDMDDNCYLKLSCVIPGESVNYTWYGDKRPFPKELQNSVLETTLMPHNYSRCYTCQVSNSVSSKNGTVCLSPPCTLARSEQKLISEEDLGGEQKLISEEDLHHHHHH

T2: Dimeric monkey CD48-mFc (monkey)
T2 construct: Soluble monkey CD48 with a C-terminal Fc fusion [mFc]; the whole entry is the construct
T2 chain: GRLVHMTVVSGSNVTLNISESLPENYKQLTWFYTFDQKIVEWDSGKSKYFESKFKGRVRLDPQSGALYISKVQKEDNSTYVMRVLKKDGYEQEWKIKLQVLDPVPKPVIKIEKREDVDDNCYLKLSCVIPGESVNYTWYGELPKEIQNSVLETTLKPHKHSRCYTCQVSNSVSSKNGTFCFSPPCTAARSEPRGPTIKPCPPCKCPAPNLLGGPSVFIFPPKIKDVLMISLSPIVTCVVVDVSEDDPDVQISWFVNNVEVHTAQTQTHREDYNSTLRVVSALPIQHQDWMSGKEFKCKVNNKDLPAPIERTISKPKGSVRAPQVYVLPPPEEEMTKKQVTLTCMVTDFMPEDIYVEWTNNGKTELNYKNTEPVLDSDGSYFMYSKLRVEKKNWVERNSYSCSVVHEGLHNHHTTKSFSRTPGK

T3: Monomeric monkey CD48-mmH (monkey)
T3 construct: Soluble monkey CD48 with a myc-myc-hexa-histidine C-terminal tag; the whole entry is the construct; also called mfCD48-mmH
T3 chain: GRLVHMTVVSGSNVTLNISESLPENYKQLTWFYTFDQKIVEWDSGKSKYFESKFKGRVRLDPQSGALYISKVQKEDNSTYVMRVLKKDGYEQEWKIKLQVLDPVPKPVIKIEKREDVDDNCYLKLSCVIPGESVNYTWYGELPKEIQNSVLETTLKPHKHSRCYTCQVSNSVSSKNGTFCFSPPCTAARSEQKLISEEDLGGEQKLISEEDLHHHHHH

T4: Dimeric human CD48-mFc (human)
T4 construct: the whole entry is the construct; also called hCD48-mFc
T4 chain: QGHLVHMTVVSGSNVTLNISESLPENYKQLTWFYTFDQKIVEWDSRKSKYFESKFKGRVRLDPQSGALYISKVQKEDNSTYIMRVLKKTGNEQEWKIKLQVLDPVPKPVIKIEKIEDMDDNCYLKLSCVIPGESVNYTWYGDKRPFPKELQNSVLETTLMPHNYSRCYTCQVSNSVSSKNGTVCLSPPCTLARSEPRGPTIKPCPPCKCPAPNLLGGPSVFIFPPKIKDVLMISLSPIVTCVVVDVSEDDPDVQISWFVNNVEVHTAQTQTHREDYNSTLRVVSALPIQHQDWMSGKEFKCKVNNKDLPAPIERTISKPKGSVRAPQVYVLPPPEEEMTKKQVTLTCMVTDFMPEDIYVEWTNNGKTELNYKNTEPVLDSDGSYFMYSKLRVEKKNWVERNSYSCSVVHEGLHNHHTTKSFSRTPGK


Experiments:
[1] = target: T1, Monomeric human CD48-mmH; assay: SPR (Biacore), antibody captured by anti-Fc, CD48 in solution, 37 C
Method: (§1) Measurements were conducted on a T100-2 BIACORE™ instrument (Biacore Life Sciences division of GE Healthcare, Piscataway, N.J.). Antibodies (either with mouse Fc [designated “H2M” or “H3M”] or human IgG4 Fc [designated “H4H”]) were captured through an anti-Fc chip surface, and CD48 was flowed over the surface either in a monomeric (soluble CD48 expressed with a myc-myc-hexa-histidine C-terminal tag [mmH]) or dimeric (soluble CD48 expressed with a C-terminal Fc fusion [mFc]) format.
(§2) The soluble CD48 was applied to the flow cell in separate injections at different concentrations, and kinetic association (kₐ) and dissociation (kd) rate constants were determined by fits to the kinetic binding data using Biacore software. Binding dissociation equilibrium constants and dissociation half-times were calculated from the kinetic rate constants as: KD=kd/kₐ; t_{1/2}=(ln 2/kd) (units: ka=M⁻¹*s⁻¹; kd=s⁻¹; KD=M; T½=min) (Tables 3-6).

[2] = target: T2, Dimeric monkey CD48-mFc; assay: as above
Method: as §1, §2

[3] = target: T3, Monomeric monkey CD48-mmH; assay: as above
Method: as §1, §2

[4] = target: T4, Dimeric human CD48-mFc; assay: as above
Method: as §1, §2

[5] = target: T2, Dimeric monkey CD48-mFc; assay: SPR (Biacore), antibody captured by anti-Fc, CD48 in solution, 25 C
Method: as §1, §2

[6] = target: T3, Monomeric monkey CD48-mmH; assay: as above
Method: as §1, §2

Binder	Kd [1] [nM]	T½ [1] [min]	koff [1] [s⁻¹]	kon [1] [M⁻¹ s⁻¹]	Kd [2] [nM]	T½ [2] [min]	koff [2] [s⁻¹]	kon [2] [M⁻¹ s⁻¹]	Kd [3] [nM]	T½ [3] [min]	koff [3] [s⁻¹]	kon [3] [M⁻¹ s⁻¹]	Kd [4] [nM]	T½ [4] [min]	koff [4] [s⁻¹]	kon [4] [M⁻¹ s⁻¹]	Kd [5] [nM]	T½ [5] [min]	koff [5] [s⁻¹]	kon [5] [M⁻¹ s⁻¹]	further results
H4H1763N (antibody, V domains shown, Human IgG4 Fc (H4H)) VH: QIQLVQSGAEMKRPGTSVKVSCKASGYTFTSYGINWVRQAPGQGLEWMGWISAYNGDTNYAQKLQGRVTMTTDTSTTTAYMEVRSLRSDDTAVYYCARFLTGTKDYYYGMDVWGQGTTVTVSS VL: DIQMTQSPSSLSASVGDRVTITCQASQDISNFLNWYQQKPGKAPDLLINDASILETGVPSRFSGSGSGTDFTLTINNLQPEDIATYYCQQYDNLPLTFGGGTKVEIK	12.7	1	0.0169	1.33e+06	0.047	101	0.000114	2.42e+06	2.49	9	0.00133	534000	0.0267	184	6.28e-05	2.35e+06	0.0519	168	6.88e-05	1.33e+06	Kd [6]: 2.34 nM; T½ [6]: 9 min; koff [6]: 0.00124 s⁻¹; kon [6]: 527000 M⁻¹ s⁻¹
H4H1707N (antibody, V domains shown, Human IgG4 Fc (H4H)) VH: EGQLLESGGGLAQPGGSLRLSCAASGITFGRYAMSWVRQAPGKGLEWVSLISGSGGSTYHADSVKGRFTISRDNSKNTLYLQMNSLRAEDTAVYYCAIYNNYNWFDPWGQGTLVTVSS VL: EIVLTQSPGTLSLSPGERATLSCRASQSVSSNYLAWYQQKPGQAPRLLIYDASSRATDIPDRFSGSGSGTDFTLTISRLEPEDFAVYYCQQYGSSPRTFGQGTKVEIK	9.63	4	0.00273	284000	3.2	2	0.00524	1.64e+06	3.72	9	0.00122	327000	0.0654	180	6.42e-05	981000	1.48	10	0.00119	805000	Kd [6]: 1.25 nM; T½ [6]: 32 min; koff [6]: 0.000362 s⁻¹; kon [6]: 289000 M⁻¹ s⁻¹
H4H1713N (antibody, V domains shown, Human IgG4 Fc (H4H)) VH: QVQLVQSGAEVKKPGASVKVSCKASGHTFTNYYIHWVRQAPGQGLEWMGITNPNDGNTRYAQKFQGRISMTWDTSTSTVFMELSSLKSEDTAVYYCAGLRYWFFDLWGRGTPVTVSS VL: DIQMTQSPSSVSASVGDRVTITCRASQDISSWLAWYQQKPGKAPNLLIFAASSLQSGVPSRFSGSGSGTDFTLTISSLQPEDFGTYYCQQTDNFPRTFGQGTKVEIN	2.23	18	0.000636	286000	0.3	22	0.000516	1.72e+06	1.19	30	0.000382	320000	0.036	255	4.53e-05	1.26e+06	0.281	48	0.000242	861000	Kd [6]: 0.843 nM; T½ [6]: 44 min; koff [6]: 0.000265 s⁻¹; kon [6]: 315000 M⁻¹ s⁻¹

Now from value to binder, other results behind:

Kd [1] [nM]	T½ [1] [min]	koff [1] [s⁻¹]	kon [1] [M⁻¹ s⁻¹]	Kd [2] [nM]	T½ [2] [min]	koff [2] [s⁻¹]	kon [2] [M⁻¹ s⁻¹]	Kd [3] [nM]	T½ [3] [min]	koff [3] [s⁻¹]	kon [3] [M⁻¹ s⁻¹]	Kd [4] [nM]	T½ [4] [min]	koff [4] [s⁻¹]	kon [4] [M⁻¹ s⁻¹]	Kd [5] [nM]	T½ [5] [min]	koff [5] [s⁻¹]	kon [5] [M⁻¹ s⁻¹]	Binder	further results
109	1	0.0114	105000	7.4	8	0.00142	192000	2.91	19	0.00062	213000	0.33	116	9.94e-05	301000	0.525	88	0.000132	251000	H4H1764N (antibody, V domains shown, Human IgG4 Fc (H4H)) VH: QVQLVESGGGVVQPGRSLRLSCAASGFTFSDYGMHWVRQAPGKGLEWVAVIWNDGSNKNYADSVKGRFSISSDSSKNTLYLHMNSLRAEDTAVYYCARSLYSTSPWYFDLWGRGTLVTVSS VL: not shown	Kd [6]: 2.34 nM; T½ [6]: 56 min; koff [6]: 0.000206 s⁻¹; kon [6]: 87700 M⁻¹ s⁻¹
0.662	22	0.000533	804000	0.0911	83	0.000139	1.53e+06	0.44	66	0.000174	396000	0.0138	375	3.08e-05	2.23e+06	0.131	103	0.000113	858000	H4H1770P (antibody, human IgG4, V domains shown, Human IgG4 Fc (H4H)) VH: QVQLVQSGAEVKKPGAAVKVSCKASGYTFTAYGISWVRQAPGQGLEWMGWISAYDGDTNNAQKFQGRVTMTTDTSSSTAYMELRSLGSDDTAVYYCARDRYSSSSGYFDYWGQGTLVTVSS VL: DIQMTQSPSSVSASVGDRVTITCRASQDISSWLAWSQQKPGKAPKALIYAASSLQSGVPSRFSGSGSGTDFTLTISSLQPEDFATYYCQQANSFPYTFGQGTKLEIK	Kd [6]: 0.298 nM; T½ [6]: 54 min; koff [6]: 0.000215 s⁻¹; kon [6]: 720000 M⁻¹ s⁻¹
